Reference: patent publication US10808024B2, “Antibodies against immunocomplexes comprising cyanobacterial cyclic peptide hepatotoxins” (priority 2015, dated 2020)

Tested on: immunocomplexes of CCPH variants and anti-Adda mAb
Assay: Screening and cross-reactivity studies of anti-IC scFv-AP binders, specificity class
Assay type: binding

| Molecule | Specificity of anti-IC antibody (CCPH immunocomplexes recognized) |
| --- | --- |
| SA42E10: MC subgroup-specific anti-IC binder (antibody, V domains shown, Clone SA42E10; DOMAIN (31)..(35) CDR1; DOMAIN (50)..(66) CDR2; DOMAIN (99)..(114) CDR3; DOMAIN (24)..(35) CDR1; DOMAIN (51)..(57) CDR2; DOMAIN (90)..(98) CDR3) VH: EVQLLESGGGLVQPGGSLRLSCAASGFTFSDYAMHWVRQAPGKGLEWVSSIIPYTGTTDYADSVKGRFTISRDNSKNTLYLQMNSLRAEDTAVYYCARTDDLIGHYDVYYYFDYWGQGTLVTVSS VL: EIVLTQSPGTLSLSPGERATLSCRASQSVSSSYLAWYQQKPGQAPRLLIYGASSRATGVPDRFSGSGSGTDFTLTISRLEPEDFAVYYCQQSSSLPWTFGQGTKVEIKRT | MC subgroup-specific |
| SA52C2: MC subgroup-specific anti-IC binder (antibody, V domains shown, Clone SA52C2; DOMAIN (31)..(35) CDR1; DOMAIN (50)..(66) CDR2; DOMAIN (99)..(107) CDR3; DOMAIN (24)..(35) CDR1; DOMAIN (51)..(57) CDR2; DOMAIN (90)..(98) CDR3) VH: EVQLLESGGGLVQPGGSLRLSCAASGFTFSSDVMHWVRQAPGKGLEWVSEIDPSDGTTNYADSVKGRFTISRDNSKNTLYLQMNSLRAEDTAVYYCARSYLDWPLDVWGQGTLVTVSS VL: EIVLTQSPGTLSLSPGERATLSCRASQSVSSSNLAWYQQKPGQAPRLLIYGASSRATGVPDRFSGSGSGTDFTLTISRLEPEDFAVYYCQQMHSTPWTFGQGTKVEIKRT | MC subgroup-specific |
| SA41A5: MC-XR subgroup-specific anti-IC antibody (antibody, V domains shown, Clone SA41A5; DOMAIN (31)..(35) CDR1; DOMAIN (50)..(66) CDR2; DOMAIN (99)..(108) CDR3; DOMAIN (24)..(35) CDR1; DOMAIN (51)..(57) CDR2; DOMAIN (90)..(98) CDR3) VH: EVQLLESGGGLVQPGGSLRLSCAASGFTFSNYYMHWVRQAPGKGLEWVSEINYDGETDYADSVKGRFTISRDNSKNTLYLQMNSLRAEDTAVYYCARDGFWYGTAFDYWGQGTLVTVSS VL: EIVLTQSPGTLSLSPGERATLSCRASQSVSSSALAWYQQKPGQAPRLLIYGASSRATGVPDRFSGSGSGTDFTLTISRLEPEDFAVYYCQQMHSTPWTFGQGTKVEIKRT | specific for a subgroup MC-XR |
| SA51H4: MC-XR subgroup-specific anti-IC antibody (antibody, V domains shown, Clone SA51H4; DOMAIN (31)..(35) CDR1; DOMAIN (50)..(66) CDR2; DOMAIN (99)..(108) CDR3; DOMAIN (24)..(35) CDR1; DOMAIN (51)..(57) CDR2; DOMAIN (90)..(98) CDR3) VH: EVQLLESGGGLVQPGGSLRLSCAASGFTFSDYWMHWVRQAPGKGLEWVSEIWPYDGYTNYADSVKGRFTISRDNSKNTLYLQMNSLRAEDTAVYYCARDPGPEGVFDYWGQGTLVTVSS VL: EIVLTQSPGTLSLSPGERATLSCRASQSVSSSNLAWYQQKPGQAPRLLIYGASSRATGVPDRFSGSGSGTDFTLTISRLEPEDFAVYYCQQSSSYPWTFGQGTKVEIKRT | specific for a subgroup MC-XR |
| SA41F2: XR subgroup-specific anti-IC antibody (antibody, V domains shown, Clone SA41F2; DOMAIN (31)..(35) CDR1; DOMAIN (50)..(66) CDR2; DOMAIN (99)..(110) CDR3; DOMAIN (24)..(35) CDR1; DOMAIN (51)..(57) CDR2; DOMAIN (90)..(98) CDR3) VH: EVQLLESGGGLVQPGGSLRLSCAASGFTFSNYGMHWVRQAPGKGLEWVSEIDYVDGNTYYADSVKGRFTISRDNSKNTLYLQMNSLRAEDTAVYYCAREVYAHGIAAFDYWGQGTLVTVSS VL: EIVLTQSPGTLSLSPGERATLSCRASQSVSSSALAWYQQKPGQAPRLLIYGASSRATGVPDRFSGSGSGTDFTLTISRLEPEDFAVYYCQQYSSTPWTFGQGTKVEIKRT | specific for a subgroup XR |
